# Source: patent US7592168B2, “Cephalosporin C acylase mutant and method for preparing 7-ACA using same” (Sandoz AG, priority 2003, dated 2009)
# B1: Wild-type: Pseudomonas sp. SE83 derived wild-type CPC acylase (AcyII), α-subunit SEQ ID NO: 4 and β-subunit SEQ ID NO: 5, from pBCPC (protein)
# alpha: TMAAKTDREALQAALPPLSGSLSIPGLSAPVRVQRDGWGIPHIKASGEADAYRALGFVHAQDRLFQMELTRRKALGRAAEWLGAEAAEADILVRRLGMEKVCRRDFEALGAEAKDMLRAYVAGVNAFLASGAPLPIEYGLLGAEPEPWEPWHSIAVMRRLGLLMGSVWFKLWRMLALPVVGAANALKLRYDDGGQDLLCIPPGVEAERLEADLAALRPAVDALLKAMGG
# beta: SNNWAVAPGRTATGRPILAGDPHRVFEIPGMYAQHHLACDRFDMIGLTVPGVPGFPHFAHNGKVAYCVTHAFMDIHDLYLEQFAEDGRTARFGNEFEPVAWRRDRIAVRGGADREFDIVETRHGPVIAGDPLEGAALTLRSVQFAETDLSFDCLTRMPGASTVAQLYDATRGWGLIDHNLVAGDVAGSIGHLVRARVPSRPRENGWLPVPGWSGEHEWRGWIPHEAMPRVIDPPGGLIVTANNRVVADDHPDYLCTDCHPPYRAERIMERLVASPAFAVDDAAAIHADTLSPHVGLLRARLEALGIQGSLPAEELRQTLIAWDGRMDAGSQAASAYNAFRRALTRLVTARSGLEQAIAHPFAAVPPGVSPQGQVWWAVPTLLRNDDAGMLKGWSWDEALSEALSVATQNLTGRGWGEEHRPRFTHPLSAQFPAWAALLNPVSRPIGGDGDTVLANGLVPSAGPEATYGALSRYVFDVGNWDNSRWVVFHGASGHPASPHYADQNAPWSDCAMVPMLYSWDRIAAEAVTSQELVPA
# modifications: Pseudomonas sp. SE83
# B2: S12: sixfold CPC acylase mutant, α-subunit SEQ ID NO: 7 and β-subunit SEQ ID NO: 8 (protein)
# alpha: TMAAKTDREALQAALPPLSGSLSIPGLSAPVRVQRDGWGIPHIKASGEADAYRALGFVHAQDRLFQMELTRRKALGRAAEWLGAEAAEADILVRRLGMEKVCRRDFEALGAEAKDMLRAYAAGVNAFLASGAPLPIEYSLLGAEPEPWEPWHSIAVMRRLGLLMGSVWFKLWRMLALPVVGAANALKLRYDDGGQDLLCIPPGVEAERLEADLAALRPAVDALLKAMGG
# beta: SNNWAVAPGRTATGRPILAGDPHRVFEIPGMYAQHHLACDRFDMIGLTVPGVPGFPHNAHNGKVAYCVTHAFMDTHDLYLEQFAEDGRTARFGNEFEPVAWRRDRIAVRGGADREFDIVETRHGPVIAGDPLEGAALTLRSVQFAETDLSFDCLTRMPGASTVAQLYDATRGWGLVDHNLVAGDVAGSIGHLVRARVPSRPRENGWLPVPGWSGEHEWRGWIPHEAMPRVIDPPGGLIVTANNRVVADDHPDYLCTDCHPPYRAERIMERLVASPAFAVDDAAAIHADTLSPHVGLLRARLEALGIQGSLPAEELRQTLIAWDGRMDAGSQAASAYNAFRRALTRLVTARSGLEQAIAHPFAAVPPGVSPQGQVWWAVPTLLRNDDAGMLKGWSWDEALSEALSVATQNLTGRGWGEEHRPRFTHPLSAQFPAWAALLNPVSRPIGGDGDTVLANGLVPSAGPEATYGALCRYVFDVGNWDNSRWVVFHGASGHPASPHYADQNAPWSDCAMVPMLYSWDRIAAEAVTSQELVPA
# modifications: alpha-subunit of mutatnt CPC acylase S12 protein; beta-subunit of mutatnt CPC acylase S12 protein
# Key:
# Format in all cases: biochemical
# [1] = Specific activity of CPC acylase to GL-7-ACA; conditions: purified enzyme
# Method: J. Appl. Microbiol. Biotechnol. 23: 559-564, 1995). […] After the reaction, the mixture (200 μl) of 50 mM NaOH and 20% glacial acetic acid (1:2) was added thereto to stop the reaction. 200 μl of the supernatant recovered from the reaction mixture by centrifugation was mixed with 40 μl of 0.5% (w/v) PDAB (p-dimethylaminobenzaldehyde; Sigma, USA) dissolved in a methanol and the reaction mixture was incubated at 37° C. for 10 min. After the reaction, the absorbance of reaction mixture was measured at 415 nm and quantified by comparing with a calibration curve of standard material. […] Biochem. 72: 248-254, 1976) and representing it as an active unit corresponding to 1 mg of protein. The reactivity of CPC acylase mutant to CPC was determined by the following steps of adding the same amount of protein to a reaction mixture, performing an enzyme reaction for a fixed time, measuring the amount of 7-ACA produced in the reaction mixture, and representing it as a relative value. The end-product inhibition by 7-ACA was determined by adding a protein corresponding to the same active unit to a reaction mixture, performing an enzyme reaction for a fixed time; measuring the amount of 7-ACA produced in the reaction mixture, and representing it as a relative value.
# Therefore, it has been known that the Pseudomonas sp.
# [2] = Reactivity to CPC (relative 7-ACA produced by the same amount of protein); conditions: crude enzyme solution
# Method: (§1) The enzyme activity of CPC acylase mutant to CPC was measured according to the method described by Park et al. with minor modifications as follows (Park, et al., Kor. J. Appl. Microbiol. Biotechnol. 23: 559-564, 1995). A substrate solution was prepared by dissolving CPC (purity 74.2%; CJ Corp., Korea) in 0.1 M Tris-HCl buffer solution (pH 8.0) at a concentration of 20 mg/ml and adjusting pH to 8 with 1 N NaOH. 20 μl of the CPC solution was mixed with 20 μl of the crude enzyme solution prepared above and the reaction mixture was incubated at 37° C. for 5 min. After the reaction, the mixture (200 μl) of 50 mM NaOH and 20% glacial acetic acid (1:2) was added thereto to stop the reaction. 200 μl of the supernatant recovered from the reaction mixture by centrifugation was mixed with 40 μl of 0.5% (w/v) PDAB (p-dimethylaminobenzaldehyde; Sigma, USA) dissolved in a methanol and the reaction mixture was incubated at 37° C. for 10 min. After the reaction, the absorbance of reaction mixture was measured at 415 nm and quantified by comparing with a calibration curve of standard material. […] Meanwhile, the specific activity of CPC acylase mutant for CPC was determined by measuring the amount of protein remaining in the enzyme solution according to the method described by Bradford (Bradford, M., Anal. Biochem. 72: 248-254, 1976) and representing it as an active unit corresponding to 1 mg of protein. […]
# [3] = End-product inhibition by 7-ACA; conditions: same active unit of enzyme
# Method: as §1
# [4] = Optimal reaction temperature and pH to CPC; conditions: purified mutant enzyme
# Method: Further, as a result of examining the optimal reaction temperature and pH of the wild-type CPC acylase AcyII, the optimal reaction temperature and pH to CPC were 40° C. and 9.0, respectively.
Molecule,specific activity to GL-7-ACA [1],reactivity to CPC (in words) [2],end-product inhibition by 7-ACA (in words) [3],"reaction feature (e.g., optimal temperature and pH) compared with wild-type [4]"
B1,about 23.1 unit/mg protein,,,
B2,,higher than that of #76 mutant,significantly decreased as compared with that of the wild-type enzyme,the same as the wild-type CPC acylase
